The values that follow come from patent publication US20210269532A1.

For assay [1], the target named is His-tagged human AXL extracellular domain (recombinant) (human) (UniProt P30530). As to the kind of experiment: SPR classical sandwich assay (IBIS MX96): 100 nM analyte over AXL-His ECD held by surface-captured 22995; white cell = sandwiching.
For assay [2] the target is unchanged. As to the kind of experiment: BLI (Octet QK384), His-tagged protein captured on Anti-Penta-HIS sensors, antibody at saturating conditions; row HuAXL_ECD, the reference of the normalization.
Assay [3] has the same target. Put plainly: SPR classical sandwich assay (IBIS MX96): 100 nM analyte over AXL-His ECD held by the surface-captured Control antibody (f2); white cell = sandwiching.
For assay [4] the target is unchanged. Put plainly: SPR classical sandwich assay (IBIS MX96): 100 nM analyte over AXL-His ECD held by surface-captured 10G5 analogue; grey cell = blocked (self).
Assay [5] addresses chimeric mouse AXL ECD with human Ig1 domain, His-tagged (human; mouse) (UniProt Q00993). As to the kind of experiment: BLI (Octet QK384), His-tagged protein captured on Anti-Penta-HIS sensors, antibody at saturating conditions; white cell. (In BLI a coated tip is dipped into the sample, and binding shifts an interference pattern.)
Assay [6] deals with His-tagged human AXL extracellular domain (recombinant) (human) (UniProt P30530). Put plainly: SPR classical sandwich assay (IBIS MX96): 100 nM analyte over AXL-His ECD held by surface-captured YW327.6S2 IgG1-LALA analogue; white cell = sandwiching.
For assay [7] the target is unchanged. As to the kind of experiment: SPR classical sandwich assay (IBIS MX96): 100 nM analyte over AXL-His ECD held by surface-captured 22883; grey cell = blocked.
Assay [8] has the same target. As to the kind of experiment: SPR classical sandwich assay (IBIS MX96): 100 nM analyte over AXL-His ECD held by surface-captured 23203-1; white cell = sandwiching.

Sequence of His-tagged human AXL extracellular domain (recombinant) (human) (P30530 26-451): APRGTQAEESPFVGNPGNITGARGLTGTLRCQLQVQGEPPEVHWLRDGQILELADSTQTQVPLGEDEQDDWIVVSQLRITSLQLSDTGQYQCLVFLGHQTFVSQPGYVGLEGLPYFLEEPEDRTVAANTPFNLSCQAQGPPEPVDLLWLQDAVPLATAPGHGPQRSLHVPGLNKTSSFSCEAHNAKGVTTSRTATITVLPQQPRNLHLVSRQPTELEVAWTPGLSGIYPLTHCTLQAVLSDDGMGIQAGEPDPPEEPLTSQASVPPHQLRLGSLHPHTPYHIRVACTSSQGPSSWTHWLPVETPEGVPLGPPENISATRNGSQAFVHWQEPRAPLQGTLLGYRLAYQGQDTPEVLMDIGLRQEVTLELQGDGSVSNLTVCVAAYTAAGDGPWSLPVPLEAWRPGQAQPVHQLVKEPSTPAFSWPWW
Sequence of chimeric mouse AXL ECD with human Ig1 domain, His-tagged (human; mouse) (Q00993 other isoform, or with tags, fused parts or gaps mutant limits assumed): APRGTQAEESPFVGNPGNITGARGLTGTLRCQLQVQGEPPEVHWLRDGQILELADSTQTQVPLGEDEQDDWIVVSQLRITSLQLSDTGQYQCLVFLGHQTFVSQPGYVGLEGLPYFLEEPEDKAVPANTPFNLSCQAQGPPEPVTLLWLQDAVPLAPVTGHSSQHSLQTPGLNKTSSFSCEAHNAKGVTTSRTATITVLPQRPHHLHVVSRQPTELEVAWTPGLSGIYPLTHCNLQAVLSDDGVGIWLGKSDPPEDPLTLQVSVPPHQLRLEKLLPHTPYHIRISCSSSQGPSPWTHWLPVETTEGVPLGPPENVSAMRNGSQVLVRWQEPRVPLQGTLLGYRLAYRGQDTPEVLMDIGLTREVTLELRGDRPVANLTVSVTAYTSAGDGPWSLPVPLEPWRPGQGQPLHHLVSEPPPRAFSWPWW

B1: 10G5 analogue (BerGenBio) (antibody, from another filing, V domains shown)
VH: QVQLQQSGAELVRPGASVKLSCKASGYSFTDFYINWVRQRPGQGLEWIARIFPGGDNTYYNEKFKGKATLTAEESSSTAYIQLSSLTSEDSAVYFCARRGLYYAMDYWGQGISVTVSS
VL: DVLMTQTPLSLPVSLGDQASISCRSSQSLVHSNGIPYLHWYLQKPGQSPKLLIYRVSNRFSGVPDRFSGSGSGTDFTLKISRVEAEDLGVYFCSQGTHVPPTFGGGTKLEIK
As to B1, the normalized SPR sandwich response in assay [1] is 1.3; in assay [3], 1.2; in assay [4], -0.2; in assay [6] it was 1.6; in assay [7] it was -0.1; in assay [8], 1.2. For the same molecule, the BLI response (nm) normalized to full-length human AXL-ECD worked out at 1 in assay [2] and 0.9 in assay [5].
